For 167 variants, self-cleavage results are on record in the RNAGym collection of RNA variant scans (doi:10.7554/elife.80360).

The labels stand for the following.
B1: HDV Ribozyme (parent)
chain: GGCCGGCAUGGUCCCAGCCUCCUCGCUGGCGCCGGCUGGGCAACAUUCCGAGGGGACCGUCCCCUCGGUAAUGGCGAAUGGGACCCA

In the data set the parent is B1. The data set can be described thus: self-cleavage, relative activity (ratio to wild type); higher = more cleavage; co-transcriptional.
Consider G11U C21A, for which the self-cleavage was found to be 0.0329.
Consider A42G C64A, for which the self-cleavage is 0.302.
For the variant C30A A51G, the self-cleavage amounted to 0.361.
G53A G82U: the self-cleavage was 0.359.
Consider C61G G68C, for which the self-cleavage came out at 0.665.
For the variant C3U U60A, the self-cleavage came out at 0.769.
The result for G53C U69G reads 1.14.
In the case of A45U G50U, the self-cleavage turned out to be 0.793.
Consider G2A C33G, for which the self-cleavage turned out to be 0.0378.
The result for C21G G67U reads 0.0723; that for G38C G59C, 0.266.
With G1U C30A the figure was 0.426.
Regarding G17A C26U, the self-cleavage amounted to 0.726.
With G59A A77U the figure was 0.574; with C21U G52C, 0.173; with A51C C61G, 0.731.
With G81A C86A the figure was 0.805; with G31A A42U, 0.107; with C30G U65G, 0.0346.
The result for G73U A83U reads 0.0462; that for U65A G68U, 0.87.
Consider C36G U46G, for which the self-cleavage was determined as 0.0692.
With G59A U79C the figure was 0.518.
The result for G73C G76C reads 0.501; that for G73C G76U, 0.659; that for U27C G35A, 0.389.
As to A42U G74A, the self-cleavage stood at 0.343.
With G39A C44G the figure was 0.108; with A78U U79C, 0.375; with G11U C62U, 0.403.
With G53A G55C the figure was 0.912; with A43C C44G, 0.458; with A43C C61U, 0.434.
The result for G35C A51C reads 0.297; that for U47G A77G, 0.923.
For the variant U60C G81U, the self-cleavage amounted to 0.424.
For G54A G68C, the self-cleavage came out at 0.173.
With G17C A45U the figure was 0.107.
On to C22A C44U, for which the self-cleavage amounted to 0.0282.
On to G59C C66U, for which the self-cleavage turned out to be 0.81.
With G2A U46C the figure was 0.109.
C14U C61G: the self-cleavage was found to be 1.08.
With G1U A51G, the self-cleavage worked out at 0.514.
With U12C G17U the figure was 0.308; with C36A C85U, 0.158; with C19A C24U, 0.0674.
As for G31U C32A, the self-cleavage was found to be 0.111.
On to C32A C84A, for which the self-cleavage is 0.
On to A45U G53C, for which the self-cleavage amounted to 0.778.
In the case of A77C C84A, the self-cleavage was 0.128.
With C21U U37C, the self-cleavage is 0.354.
The result for G67C G74A reads 0.415; that for G5U A45G, 0.692; that for C24A C30A, 0.237.
The result for U23G G29A reads 0; that for C13G C48U, 0.0739; that for G17A C19G, 0.
For C19U C32G, the self-cleavage was determined as 0.0482.
With C15G A70C the figure was 0.776.
The result for G54A C63A reads 0.831; that for G28U G80A, 0.0681; that for U47G C62G, 0.534.
The result for U47G C62A reads 1.02.
As for U69G A71G, the self-cleavage worked out at 1.16.
Turning to G54A G59A, the self-cleavage was 1.01.
Regarding G52A C57A, the self-cleavage was 0.963.
The result for C22U C84G reads 0.291; that for C15A G59A, 0.543; that for G10A G29A, 0.0798.
The result for U20C C22A reads 0.119; that for C4A G50C, 0.456.
Regarding C66U C86G, the self-cleavage was determined as 0.772.
With C62U U69C the figure was 1.07.
For G17C G38C, the self-cleavage is 0.0831.
With U27C U72G the figure was 0.612; with G55A C61A, 0.956.
The result for C7U G38A reads 0.0496; that for G35C C86G, 0.0489; that for U20G U60G, 0.0831.
As for G39A A45U, the self-cleavage amounted to 0.389.
The result for U20C C36G reads 0.111; that for C26G U65G, 1.09; that for U46C C85U, 0.615.
Regarding U46A A83G, the self-cleavage is 0.378.
Turning to C58G G59C, the self-cleavage was found to be 1.03.
Regarding C58G G59U, the self-cleavage was 0.946.
The result for C64G A77C reads 0.431; that for G28U C57G, 0.0773.
The result for C3U C44U reads 0.378; that for C4U A43C, 0.578; that for U37C G40A, 0.95.
U12G A43G: the self-cleavage was 0.237.
With A8U G76U the figure was 0.707.
For U47A U72G, the self-cleavage turned out to be 0.665.
The result for C33A U46G reads 0.0615.
With A45G G59A the figure was 1.06; with G11A C86G, 0.306; with C22G G54U, 0.0841.
The result for U12A G17C reads 0.0504; that for C15G A42U, 0.0504.
With G5C C24A, the self-cleavage came to 0.0811.
Consider G6C A71C, for which the self-cleavage stood at 0.0791.
With C36A A43G the figure was 0.277; with A16G C61A, 1.08.
The result for A56G G59U reads 1.06; that for A56U G82U, 0.462.
The result for A8U C30G reads 0.0369; that for G29U C61G, 0.203.
In the case of C63G G80A, the self-cleavage stood at 0.366.
With C26A G34A the figure was 0.486.
With C4A C64G the figure was 0.386; with C26U U65C, 1.07; with G6C U60C, 0.453.
For G25U G80U, the self-cleavage is 0.115.
Turning to A70C A71G, the self-cleavage was found to be 0.831.
With U79G C85A the figure was 0.415; with G2A G73U, 0.0443.
Take U9G U20G: the self-cleavage stood at 0.
With C22U C49U the figure was 0.45; with G25C C32A, 0.148; with G31U C75G, 0.148.
For the variant G10U G28U, the self-cleavage turned out to be 0.109.
For the variant C26G G68A, the self-cleavage was found to be 0.787.
For U12C C48A, the self-cleavage is 0.762.
Consider G10A U60C, for which the self-cleavage stood at 0.787.
On to U9A G11U, for which the self-cleavage came to 0.312.
The result for C24A C41G reads 0.536; that for G25C G53A, 0; that for C32A U60A, 0.252.
With G53U A78U the figure was 0.251.
As to U9G G29U, the self-cleavage came out at 0.
Turning to C13A C64A, the self-cleavage turned out to be 0.264.
With A71C C85U, the self-cleavage came out at 0.875.
With U23G G28U the figure was 0.0326; with C57U C63U, 0.958.
As for U12A G25A, the self-cleavage is 0.108.
For the variant U69A C84G, the self-cleavage came out at 0.578.
With G29A G81C the figure was 0.0314; with G28U G40C, 0.215; with C66A G81U, 0.227.
In the case of G11C G34A, the self-cleavage came to 0.108.
With G10U G40C the figure was 0.313.
Turning to G6U A77C, the self-cleavage came to 0.332.
The result for C15G G73A reads 0.162.
With C21A C36G the figure was 0.0627; with G40C A42C, 0.111; with G25C C58G, 0.161.
The result for G28A G68U reads 0.0733.
Regarding U37G G52C, the self-cleavage came out at 0.178.
The result for U23A G74C reads 0.323; that for G68C C85U, 0.892; that for G35U C41U, 0.63.
With A78G the figure was 0.75.
A42C G73A: the self-cleavage is 0.245.
Regarding C3A G34A, the self-cleavage was 0.123.
With C18G G73C the figure was 0.104; with C13A C19G, 0.102.
With U60C G67U the figure was 1.03; with G25U A87C, 0.0755; with C33U A83G, 0.511.
As to U72G C86A, the self-cleavage was 1.16.
Consider C14G G17U, for which the self-cleavage was found to be 0.323.
G53C C57A: the self-cleavage is 0.95.
A8C A87C: the self-cleavage is 0.805.
As to C64A G81A, the self-cleavage came out at 0.386.
The result for C14U G76C reads 1.06; that for G5C A16C, 0.0875.
